B1: GST-hnRNPH2 PY-NLS WT (aa 169–225) [human] / karyopherin β2 (Kapβ2) [not stated] (parent complex)
chain 1: LKKHKERIGHRYIEIFKSSRAEVRTHYDPPRKLMAMQRPGPYDRPGAGRGYNSIGRG
chain 2: MVWDRQTKMEYEWKPDEQGLQQILQLLKESQSPDTTIQRTVQQKLEQLNQYPDFNNYLIFVLTKLKSEDEPTRSLSGLILKNNVKAHFQNFPNGVTDFIKSECLNNIGDSSPLIRATVGILITTIASKGELQNWPDLLPKLCSLLDSEDYNTCEGAFGALQKICEDSAEILDSDVLDRPLNIMIPKFLQFFKHSSPKIRSHAVACVNQFIISRTQALMLHIDSFIENLFALAGDEEPEVRKNVCRALVMLLEVRMDRLLPHMHNIVEYMLQRTQDQDENVALEACEFWLTLAEQPICKDVLVRHLPKLIPVLVNGMKYSDIDIILLKGDVEEDETIPDSEQDIRPRFHRSRTVAQQHDEDGIEEEDDDDDEIDDDDTISDWNLRKCSAAALDVLANVYRDELLPHILPLLKELLFHHEWVVKESGILVLGAIAEGCMQGMIPYLPELIPHLIQCLSDKKALVRSITCWTLSRYAHWVVSQPPDTYLKPLMTELLKRILDSNKRVQEAACSAFATLEEEACTELVPYLAYILDTLVFAFSKYQHKNLLILYDAIGTLADSVGHHLNKPEYIQMLMPPLIQKWNMLKDEDKDLFPLLECLSSVATALQSGFLPYCEPVYQRCVNLVQKTLAQAMLNNAQPDQYEAPDKDFMIVALDLLSGLAEGLGGNIEQLVARSNILTLMYQCMQDKMPEVRQSSFALLGDLTKACFQHVKPCIADFMPILGTNLNPEFISVCNNATWAIGEISIQMGIEMQPYIPMVLHQLVEIINRPNTPKTLLENTAITIGRLGYVCPQEVAPMLQQFIRPWCTSLRNIRDNEEKDSAFRGICTMISVNPSGVIQDFIFFCDAVASWINPKDDLRDMFCKILHGFKNQVGDENWRRFSDQFPLPLKERLAAFYGV
B2: FLAG-hnRNPH2 WT, full length [human] / Kapβ2 in HEK293T cells [human (endogenous in HEK293T)] (parent complex)
chain 1: MMLSTEGREGFVVKVRGLPWSCSADEVMRFFSDCKIQNGTSGIRFIYTREGRPSGEAFVELESEEEVKLALKKDRETMGHRYVEVFKSNSVEMDWVLKHTGPNSPDTANDGFVRLRGLPFGCSKEEIVQFFSGLEIVPNGMTLPVDFQGRSTGEAFVQFASQEIAEKALKKHKERIGHRYIEIFKSSRAEVRTHYDPPRKLMAMQRPGPYDRPGAGRGYNSIGRGAGFERMRRGAYGGGYGGYDDYGGYNDGYGFGSDRFGRDLNYCFSGMSDHRYGDGGSSFQSTTGHCVHMRGLPYRATENDIYNFFSPLNPMRVHIEIGPDGRVTGEADVEFATHEDAVAAMAKDKANMQHRYVELFLNSTAGTSGGAYDHSYVELFLNSTAGASGGAYGSQMMGGMGLSNQSSYGGPASQQLSGGYGGGYGGQSSMSGYDQVLQENSSDYQSNLA
chain 2: B1 chain 2

Variants of: B1
Assay: GST pulldown, Coomassie Blue band intensity; parent: 86; read off a plot

Compared with chain 1 LKKHKERIGHRYIEIFKSSRAEVRTHYDPPRKLMAMQWPGPYDRPGAGRGYNSIGRG [chain 1 R38W], chain 1 LKKHKERIGHRYIEIFKSSRAEVRTHYDPPRKLMAMQRPGLYDRPGAGRGYNSIGRG [chain 1 P41L] is lower in response: ~42% for the first, ~28% for the second.

Variants of: B2
Assay: co-immunoprecipitation (anti-FLAG IP, immunoblot densitometry); HEK293T cells transfected with FLAG-hnRNPH2 constructs; parent: 100; read off a plot

Going from chain 1 MMLSTEGREGFVVKVRGLPWSCSADEVMRFFSDCKIQNGTSGIRFIYTREGRPSGEAFVELESEEEVKLALKKDRETMGHRYVEVFKSNSVEMDWVLKHTGPNSPDTANDGFVRLRGLPFGCSKEEIVQFFSGLEIVPNGMTLPVDFQGRSTGEAFVQFASQEIAEKALKKHKERIGHRYIEIFKSSRAEVRTHYDPPRKLMAMQRPGPCDRPGAGRGYNSIGRGAGFERMRRGAYGGGYGGYDDYGGYNDGYGFGSDRFGRDLNYCFSGMSDHRYGDGGSSFQSTTGHCVHMRGLPYRATENDIYNFFSPLNPMRVHIEIGPDGRVTGEADVEFATHEDAVAAMAKDKANMQHRYVELFLNSTAGTSGGAYDHSYVELFLNSTAGASGGAYGSQMMGGMGLSNQSSYGGPASQQLSGGYGGGYGGQSSMSGYDQVLQENSSDYQSNLA [chain 1 Y210C] to chain 1 MMLSTEGREGFVVKVRGLPWSCSADEVMRFFSDCKIQNGTSGIRFIYTREGRPSGEAFVELESEEEVKLALKKDRETMGHRYVEVFKSNSVEMDWVLKHTGPNSPDTANDGFVRLRGLPFGCSKEEIVQFFSGLEIVPNGMTLPVDFQGRSTGEAFVQFASQEIAEKALKKHKERIGHRYIEIFKSSRAEVRTHYDPPRKLMAMQRPGLYDRPGAGRGYNSIGRGAGFERMRRGAYGGGYGGYDDYGGYNDGYGFGSDRFGRDLNYCFSGMSDHRYGDGGSSFQSTTGHCVHMRGLPYRATENDIYNFFSPLNPMRVHIEIGPDGRVTGEADVEFATHEDAVAAMAKDKANMQHRYVELFLNSTAGTSGGAYDHSYVELFLNSTAGASGGAYGSQMMGGMGLSNQSSYGGPASQQLSGGYGGGYGGQSSMSGYDQVLQENSSDYQSNLA [chain 1 P209L], the percent of parent falls from ~25% to ~20%.

Going from chain 1 MMLSTEGREGFVVKVRGLPWSCSADEVMRFFSDCKIQNGTSGIRFIYTREGRPSGEAFVELESEEEVKLALKKDRETMGHRYVEVFKSNSVEMDWVLKHTGPNSPDTANDGFVRLRGLPFGCSKEEIVQFFSGLEIVPNGMTLPVDFQGRSTGEAFVQFASQEIAEKALKKHKERIGHRYIEIFKSSRAEVRTHYDPPRKLMAMQWPGPYDRPGAGRGYNSIGRGAGFERMRRGAYGGGYGGYDDYGGYNDGYGFGSDRFGRDLNYCFSGMSDHRYGDGGSSFQSTTGHCVHMRGLPYRATENDIYNFFSPLNPMRVHIEIGPDGRVTGEADVEFATHEDAVAAMAKDKANMQHRYVELFLNSTAGTSGGAYDHSYVELFLNSTAGASGGAYGSQMMGGMGLSNQSSYGGPASQQLSGGYGGGYGGQSSMSGYDQVLQENSSDYQSNLA [chain 1 R206W] to chain 1 MMLSTEGREGFVVKVRGLPWSCSADEVMRFFSDCKIQNGTSGIRFIYTREGRPSGEAFVELESEEEVKLALKKDRETMGHRYVEVFKSNSVEMDWVLKHTGPNSPDTANDGFVRLRGLPFGCSKEEIVQFFSGLEIVPNGMTLPVDFQGRSTGEAFVQFASQEIAEKALKKHKERIGHRYIEIFKSSRAEVRTHYDPPRKLMAMQGPGPYDRPGAGRGYNSIGRGAGFERMRRGAYGGGYGGYDDYGGYNDGYGFGSDRFGRDLNYCFSGMSDHRYGDGGSSFQSTTGHCVHMRGLPYRATENDIYNFFSPLNPMRVHIEIGPDGRVTGEADVEFATHEDAVAAMAKDKANMQHRYVELFLNSTAGTSGGAYDHSYVELFLNSTAGASGGAYGSQMMGGMGLSNQSSYGGPASQQLSGGYGGGYGGQSSMSGYDQVLQENSSDYQSNLA [chain 1 R206G], the percent of parent falls from ~48% to ~26%.

Work on chain 1 MMLSTEGREGFVVKVRGLPWSCSADEVMRFFSDCKIQNGTSGIRFIYTREGRPSGEAFVELESEEEVKLALKKDRETMGHRYVEVFKSNSVEMDWVLKHTGPNSPDTANDGFVRLRGLPFGCSKEEIVQFFSGLEIVPNGMTLPVDFQGRSTGEAFVQFASQEIAEKALKKHKERIGHRYIEIFKSSRAEVRTHYDPPRKLMAMQQPGPYDRPGAGRGYNSIGRGAGFERMRRGAYGGGYGGYDDYGGYNDGYGFGSDRFGRDLNYCFSGMSDHRYGDGGSSFQSTTGHCVHMRGLPYRATENDIYNFFSPLNPMRVHIEIGPDGRVTGEADVEFATHEDAVAAMAKDKANMQHRYVELFLNSTAGTSGGAYDHSYVELFLNSTAGASGGAYGSQMMGGMGLSNQSSYGGPASQQLSGGYGGGYGGQSSMSGYDQVLQENSSDYQSNLA [chain 1 R206Q] yielded a percent of parent of ~25%.

— publication PMC10348767 (2023)
